Experimental findings from patent publication US20100183614A1 are described below.

Common to all, as to test: cell-based or functional assay
The target of assay [1] is Efb (S. aureus virulence factor) (Staphylococcus aureus) (UniProt A6QG59).
Another assay deals with amyloid β peptide Aβ1-40 (UniProt P05067).
Assay [2] deals with gp120 of clade A HIV strains.

Efb (S. aureus virulence factor) (Staphylococcus aureus), sequence (A6QG59 30-165 limits assumed): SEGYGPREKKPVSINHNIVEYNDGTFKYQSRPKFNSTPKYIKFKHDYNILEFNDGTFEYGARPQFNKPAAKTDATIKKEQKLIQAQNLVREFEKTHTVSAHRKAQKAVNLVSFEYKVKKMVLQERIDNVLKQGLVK

B1: IgVL2-t 2E6 (protein)
chain: QSALTQPASVSGSPGQSITISCTGTSSDVGGYNYVSWYQQHPGKAPKLMISEVSNRPSGVSNRFSGSKSGNTASLTISGPQTEDEADYYCSSYTSSSTPVVFGGGTQLTVLGSSGGGGSGGGGSGGSALDIQLTQSPSSLPASVGDRVTITCRASQSISSYLNWYQQKPGKAPKLLIYAASSLQSGVPSRFSGSGSGTDFTLTISSLQPEDFATYYCQQSYSTHTFGQGTKLEIKRAAAHHHHHHGAAEQKLISEEDLNGAA
A word on the Km: it is the substrate concentration at which the rate is half of its maximum. The term kcat denotes the maximal rate divided by the concentration of active sites. Usually kcat/Km stands for the turnover number divided by the Michaelis constant. As to B1, the % Bt-Efb cleavage in assay [1] was more than 20%. In the assay with amyloid β peptide Aβ1-40, this molecule showed a 125I-Aβ1-40 hydrolyzing activity, specific activity, preparation AEQ (fmol/h/mg protein) of 1160; a 125I-Aβ1-40 hydrolyzing activity, specific activity, preparation MA1 (fmol/h/mg protein) of 380; a 125I-Aβ1-40 hydrolyzing activity, specific activity, preparation MA2 (fmol/h/mg protein) of 368; a 125I-Aβ40 hydrolysis, activity in the absence of a competitor peptide of 2590 cpm/hour. Also, in the assay with amyloid β peptide Aβ1-40, the Km was determined as 80 µM, the turnover number (kcat) worked out at 0.005 s⁻¹ and the kcat/Km was determined as 61.7 M⁻¹ s⁻¹.

B2: scFv JL427 (scFv)
scFv: QSVLTQPPSVSGAPGQRVTISCSGSSSNFGLNYVYWYQHFPGTAPKLLIYRNDQRPLGVPARFSGSKSGTSASLAISGLRSEDEADYYCQSYDNSLSGWVFGGGTQLTVLGSSGGGGSGGGGSGGSALQVQLQQSGGGLVQPGRSLRLSCAASGFTFSSYGMHWVRQAPGKGLEWVSYIGRSGSHTNYADSVKGRFTISRDNSKNTLYLQINSLRAEDTAVYYCARGLPNYGMDIWGQGTTVTVSSGSASAPTLFPAAAHHHHHHGAAEQKLISEEDLNGAA
B2: in assay [2], the HIV neutralization IC50 amounted to 0.2 µg/mL.
